Holding throughout (assay): ITC
On the technique in general: Isothermal titration calorimetry measures the heat released or taken up as one component is titrated into another.

In experiment [1] the target is T1, LIR[Sp] peptide.
T1 chain: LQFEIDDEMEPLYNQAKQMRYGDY
The note with it: chain shown with the change.

In experiment [2] the target is LC3C (purified, for ITC).
Experiment [3] has as its target GABARAP (purified, for ITC) (human).
Experiment [4] concerns the target LC3B (purified, for ITC).
Experiment [5] addresses GABARAPL1 (purified, for ITC).
The target in experiment [6] is GABARAPL2 (purified, for ITC) (human).
Sequence of GABARAPL2 (purified, for ITC) (human) (P60520 1-116): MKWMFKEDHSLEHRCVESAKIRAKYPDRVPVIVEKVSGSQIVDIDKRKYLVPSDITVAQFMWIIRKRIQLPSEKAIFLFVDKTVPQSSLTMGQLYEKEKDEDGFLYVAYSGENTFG

B1: GABARAP (purified, for ITC) F62W (protein)
chain: MKFVYKEEHPFEKRRSEGEKIRKKYPDRVPVIVEKAPKARIGDLDKKKYLVPSDLTVGQFYWLIRKRIHLRAEDALFFFVNNVIPPTSATMGQLYQEHHEEDFFLYIAYSDESVYG
With B1, in experiment [1], the Kd (in general, a measure of binding affinity in units of concentration) amounted to 0.629 µM.
Take DGTLIIDLPDSY [LIR(TP[T]) peptide]: the Kd was 26.9 µM in experiment [2]; above 132 µM in experiment [3]; above 132 µM in experiment [4]; above 132 µM in experiment [5]; above 132 µM in experiment [6].
